Reference: patent publication US20250277029A1 (Amgen, published 2025)
Positions count from the first letter of the chain named.

How the values were obtained:
[1] = target: T1, human cannabinoid receptor 1 (huCB1), full length, expressed on cells (human, UniProt P21554 1-472); experiment: cell-based or functional assay
[2] = target: T1, human cannabinoid receptor 1 (huCB1), …; experiment: cell-based or functional assay; remark: listed apart in the source
[3] = target: T1, human cannabinoid receptor 1 (huCB1), …; experiment: KinExA on-cell ranking, HEK 293T cells expressing full length CB1; %IFF of LIBC523661 divided by %IFF of antibody
[4] = target: T1, human cannabinoid receptor 1 (huCB1), …; experiment: cell-based or functional assay; remark: listed apart in the source
huCB1 nanodisc (CB1-ND) = target: T2, huCB1 nanodisc (CB1-ND) (human, UniProt P21554 99-414); experiment: Octet BLI; antibody captured by anti-human Fc, CB1-nanodisc in solution, 1:1 model
T2 construct: The His-tagged CB1 is embedded in a POPC lipid nanodisc with MSP1D1 scaffold protein (molar ratio 480:8:1); also called huCB1-ND; #CB1-008

[5] = target: T1, human cannabinoid receptor 1 (huCB1), …; experiment: cell-based or functional assay; remark: listed apart in the source
[6] = target: T1, human cannabinoid receptor 1 (huCB1), …; experiment: cell-based or functional assay; remark: listed apart in the source
[7] = target: T1, human cannabinoid receptor 1 (huCB1), …; experiment: cell-based or functional assay; remark: listed apart in the source
[8] = target: T1, human cannabinoid receptor 1 (huCB1), …; experiment: cell-based or functional assay; remark: listed apart in the source
[9] = target: T1, human cannabinoid receptor 1 (huCB1), …; experiment: KinExA on-cell ranking, HEK 293T cells expressing full length CB1; reference antibody of the ratio
[10] = target: T3, human cannabinoid receptor type 2 (CB2) (human, UniProt P34972 1-360); experiment: FACS on transfected HEK293T cells
T3 construct: also called huCB2; full length hu CB2

mouse CB1 [11] = target: T4, mouse CB1 (mouse, UniProt P47746 1-473); experiment: FACS on transfected HEK293T cells
T4 construct: also called muCB1; murine CB1

[12] = target: T1, human cannabinoid receptor 1 (huCB1), …; experiment: FACS on transiently transfected HEK293T cells
[13] = target: T5, truncated human CB1 (devoid of the 1-98 aa N-term), expressed on cells (human, UniProt P21554 99-472); experiment: FACS on transiently transfected HEK293T cells
T5 construct: Transiently expressed on HEK293T cells; also called Truncated hu CB1; N-term truncated human CB1

[14] = target: T6, mouse CB1, full length, expressed on cells (mouse, UniProt P47746 1-473); experiment: FACS on transiently transfected HEK293T cells
T6 construct: Transiently expressed on HEK293T cells; also called Full length mu CB1; muCB1

[15] = target: T7, human cannabinoid receptor type 2 (CB2), full length, expressed on cells (human, UniProt P34972 1-360); experiment: FACS on transiently transfected HEK293T cells
T7 construct: Transiently expressed on HEK293T cells; also called Full length hu CB2; huCB2

[16] = target: T8, His-tagged huCB1-ND (human CB1 in nanodisc) (human); experiment: flow cytometry, yeast-displayed IgG, binding/display ratio
T8 construct: CB1 construct of Cell 167(3) (2016) 750-762 expressed in Sf9 cells; POPC:MSP1D1:CB1 480:8:1; also called CB1-nanodisc; huCB1-Nanodisc; not shown: histidine purification tag

mouse CB1 [17] = target: T4, mouse CB1; experiment: binding to muCB1, fold over mock (method not described)
[18] = target: T9, GFP-fused huCB1-SMALP (human CB1 in styrene maleic acid lipoparticles) (human, UniProt P21554 1-472); experiment: flow cytometry, yeast-displayed IgG, GFP MFI
T9 construct: Prepared as in Luna V. et al. 2018; also called huCB1-GFP-SMALP; wtCB1-SMALP; not shown: GFP fusion

[19] = target: T3, human cannabinoid receptor type 2 (CB2); experiment: binding to huCB2, fold over mock (method not described)
[20] = target: T8, His-tagged huCB1-ND (human CB1 in …); experiment: flow cytometry, yeast-displayed IgG, huCB1-ND over empty-ND
[21] = target: T10, full length human CB1 expressed on cells (human, UniProt P21554 1-472); experiment: KinExA, on HEK 293T cells expressing full length CB1
T10 construct: also called huCB1; full length hu CB1

[22] = target: T3, human cannabinoid receptor type 2 (CB2); experiment: fold over mock (Table 14)
mouse CB1 [23] = target: T4, mouse CB1; experiment: fold over mock (Table 14)

T3 sequence (P34972 whole entry): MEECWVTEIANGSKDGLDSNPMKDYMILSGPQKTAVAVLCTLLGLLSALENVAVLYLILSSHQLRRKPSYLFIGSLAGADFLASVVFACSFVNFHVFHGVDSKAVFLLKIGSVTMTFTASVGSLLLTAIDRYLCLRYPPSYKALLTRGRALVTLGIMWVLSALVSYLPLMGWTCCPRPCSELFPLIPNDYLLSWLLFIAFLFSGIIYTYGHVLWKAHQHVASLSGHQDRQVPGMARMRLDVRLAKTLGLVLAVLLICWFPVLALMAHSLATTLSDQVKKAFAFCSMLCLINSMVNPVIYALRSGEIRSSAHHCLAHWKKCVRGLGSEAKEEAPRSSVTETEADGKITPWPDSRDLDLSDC
T7 sequence (P34972 whole entry): as above
T1 sequence (P21554 whole entry): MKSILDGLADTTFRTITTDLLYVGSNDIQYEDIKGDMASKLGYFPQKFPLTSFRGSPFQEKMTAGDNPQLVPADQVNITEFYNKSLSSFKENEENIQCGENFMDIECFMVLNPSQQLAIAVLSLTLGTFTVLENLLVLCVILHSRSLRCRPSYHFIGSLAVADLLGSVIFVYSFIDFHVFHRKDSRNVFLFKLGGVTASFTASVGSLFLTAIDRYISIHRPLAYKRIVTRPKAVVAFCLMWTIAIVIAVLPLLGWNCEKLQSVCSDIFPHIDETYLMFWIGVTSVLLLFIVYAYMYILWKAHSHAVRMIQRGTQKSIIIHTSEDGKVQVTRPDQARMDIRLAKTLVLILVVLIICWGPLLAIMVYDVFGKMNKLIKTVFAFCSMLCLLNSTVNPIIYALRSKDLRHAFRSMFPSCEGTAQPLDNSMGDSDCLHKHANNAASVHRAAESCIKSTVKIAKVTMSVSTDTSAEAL
T5 sequence (P21554 99-472): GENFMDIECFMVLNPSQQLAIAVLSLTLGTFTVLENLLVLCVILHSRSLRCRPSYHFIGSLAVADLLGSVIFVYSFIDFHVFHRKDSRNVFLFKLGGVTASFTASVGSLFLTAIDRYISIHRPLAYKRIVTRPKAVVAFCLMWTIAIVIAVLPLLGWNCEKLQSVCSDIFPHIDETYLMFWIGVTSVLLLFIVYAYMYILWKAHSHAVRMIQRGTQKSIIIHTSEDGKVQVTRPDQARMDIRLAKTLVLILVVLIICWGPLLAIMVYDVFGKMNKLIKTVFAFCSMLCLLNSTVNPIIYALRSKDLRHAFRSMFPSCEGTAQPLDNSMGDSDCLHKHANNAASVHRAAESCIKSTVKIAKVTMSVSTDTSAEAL
T4 sequence (P47746 whole entry): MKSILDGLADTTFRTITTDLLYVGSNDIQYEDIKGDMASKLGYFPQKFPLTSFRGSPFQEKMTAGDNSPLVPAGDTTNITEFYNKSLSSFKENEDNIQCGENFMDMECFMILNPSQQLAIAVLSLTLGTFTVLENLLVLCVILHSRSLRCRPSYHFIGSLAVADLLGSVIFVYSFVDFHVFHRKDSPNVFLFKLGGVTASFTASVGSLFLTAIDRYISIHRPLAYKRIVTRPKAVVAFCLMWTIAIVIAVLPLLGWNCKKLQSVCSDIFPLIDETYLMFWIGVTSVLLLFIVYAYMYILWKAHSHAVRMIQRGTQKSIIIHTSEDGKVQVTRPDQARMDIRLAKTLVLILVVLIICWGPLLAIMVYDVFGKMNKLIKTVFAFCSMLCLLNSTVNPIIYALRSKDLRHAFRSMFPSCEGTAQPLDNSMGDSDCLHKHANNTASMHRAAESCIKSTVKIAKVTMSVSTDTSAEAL
T6 sequence (P47746 whole entry): as above
T2 sequence (P21554 99-414 limits assumed): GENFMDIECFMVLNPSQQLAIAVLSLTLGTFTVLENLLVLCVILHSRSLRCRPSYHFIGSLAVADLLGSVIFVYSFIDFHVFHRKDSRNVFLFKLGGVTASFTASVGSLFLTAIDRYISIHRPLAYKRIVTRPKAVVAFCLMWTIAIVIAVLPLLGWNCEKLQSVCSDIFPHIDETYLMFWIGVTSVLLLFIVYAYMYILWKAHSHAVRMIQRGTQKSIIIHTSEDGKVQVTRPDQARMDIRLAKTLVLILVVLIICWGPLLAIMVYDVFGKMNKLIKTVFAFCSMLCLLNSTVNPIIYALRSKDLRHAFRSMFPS
T8 sequence (P21554 99-414): as the sequence (P21554 99-414 limits assumed) above
T9 sequence (P21554 whole entry, the tested form may be a part): as the sequence (P21554 whole entry) above
T10 sequence (P21554 whole entry): as above

B1: LIBC527814-1 (antibody, V domains shown)
VH: QVQLQESGPGLVKPSQTLSLTCTVSGGSIRRGGDYWGWIRQHPGKGLEWIGHVYQTGSTKYNPSFKDRATISVNTYKNQFSLKLSSVTAADTAVYYCARNYDTLTGYSYYYYGMDVWGQGTTVTVSS
VL: DIQMTQSPSTLSASVGDRVTITCRASQSISNYLNWYQQKPGKAPKLLIYAASSLHSGVPSRFSGSGSGTDFTLTISSLQPEDFASYYCQQYQSYPLTFGQGTKVEIKR
notes: Expressed as IgG1 SEFL2 mAb
- Mean IC50 (nM), cAMP antagonist assay [1]: 2.97 nM
- Mean IC50, -fold vs Rimo [1]: 0.99 fold vs Rimonabant
- n = 1 IC50 (nM), cAMP antagonist assay [1]: 4.72 nM
- n = 1 IC50, -fold vs Rimo [1]: 1.12 fold vs Rimonabant
- n = 2 IC50 (nM), cAMP antagonist assay [1]: 1.22 nM
- n = 2 IC50, -fold vs Rimo [1]: 0.68 fold vs Rimonabant
- Mean IC50 (nM, n = 3), cAMP antagonist assay [2]: 2.07 nM
- Relative binding (KinExA, on cell; vs LIBC523661 mAb) [3]: 1.9 ratio
- IC50 (nM), antagonist assay [4]: 3.8 nM
- Kd (huCB1 nanodisc (CB1-ND)): 35 nM
- koff (huCB1 nanodisc (CB1-ND)): 0.00198 s⁻¹
- kon (huCB1 nanodisc (CB1-ND)): 56600 M⁻¹ s⁻¹
- IC50, nM (CP agonist) [5]: 2.1 nM

B2: LIBC528116-1 (antibody, V domains shown)
VH: B1 VH with G37A, Q55Y, K60N, S64R, L104V
VL: B1 VL with M4L
notes: Expressed as IgG1 SEFL2 mAb; also called 37940-4
- Antagonist assay IC50 (nM), 2-AG [6]: 7.2 nM
- Antagonist assay IC50 (nM), Anandamide [6]: 17 nM
- Antagonist assay IC50 (nM), CP 55,940 [6]: 1.8 nM
- Inverse agonist assay IC50 [6]: 31.7 nM
- Mean IC50 (nM), cAMP antagonist assay [1]: 2.4 nM
- n = 1 IC50 (nM), cAMP antagonist assay [1]: 3.93 nM
- n = 2 IC50 (nM), cAMP antagonist assay [1]: 0.88 nM
- Mean IC50 (nM, n = 3), cAMP antagonist assay [2]: 1.77 nM
- IC50 [7]: 2.7 nM
- Kd (huCB1 nanodisc (CB1-ND)): 29 nM
- IC50, nM (CP agonist) [5]: 1.8 nM

B3: 10D10 (antibody, V domains shown)
VH: QVQLQESGPGLVKPSQTLSLTCTVSGGSIRRGGDYWSWIRQHPGKGLEWIGYIYYSGSTNYNPSLKSRATISVDTSKNQFSLKLSSVTAADTAVYYCARDYDILTGYSYYYYGMDVWGQGTTVTVSS
VL: not shown
notes: Parent antibody from XenoMouse; also called 10D10 antibody
- Antagonist assay IC50 (nM), 2-AG [6]: 178 nM
- Antagonist assay IC50 (nM), Anandamide [6]: 6040 nM
- Antagonist assay IC50 (nM), CP 55,940 [6]: 120 nM
- Inverse agonist assay IC50 [6]: 295 nM
- Mean IC50 (nM), cAMP antagonist assay [1]: 80.8 nM
- n = 1 IC50 (nM), cAMP antagonist assay [1]: 118 nM
- n = 2 IC50 (nM), cAMP antagonist assay [1]: 43.4 nM
- IC50, nM (TR-FRET cAMP assay, CP55,940 and Forskolin) [8]: 120 nM
- Mean IC50 (nM, n = 3), cAMP antagonist assay [2]: 120 nM
- IC50 (nM), antagonist assay [4]: 144 nM
- Kd (huCB1 nanodisc (CB1-ND)): 755 nM
- IC50, nM (CP agonist) [5]: 121 nM

B4: LIBC523661-1 (antibody, V domains shown)
VH: B1 VH with G37S, V53I, Q55Y, T56E, D67G, N100D, T103P, L104V, Y107H
VL: DIVMTQSPLSLPVTPGEPASISCRSSQSLLTSSGYNYVDWYLQKPGQSPQLLIYQGSNRASGVPDRFSGSGSGTDFTLKISRVEAEDVGVYYCRQARAIPRTFGQGTKVEIKR
notes: Expressed as IgG1 SEFL2 mAb
- Mean IC50 (nM), cAMP antagonist assay [1]: 3.3 nM
- Mean IC50, -fold vs Rimo [1]: 1.1 fold vs Rimonabant
- n = 1 IC50 (nM), cAMP antagonist assay [1]: 5.24 nM
- n = 1 IC50, -fold vs Rimo [1]: 1.24 fold vs Rimonabant
- n = 2 IC50 (nM), cAMP antagonist assay [1]: 1.35 nM
- n = 2 IC50, -fold vs Rimo [1]: 0.75 fold vs Rimonabant
- Mean IC50 (nM, n = 3), cAMP antagonist assay [2]: 3.88 nM
- Relative binding (KinExA, on cell; vs LIBC523661 mAb) [9]: 1 ratio
- Kd (huCB1 nanodisc (CB1-ND)): 77 nM
- koff (huCB1 nanodisc (CB1-ND)): 0.00275 s⁻¹
- kon (huCB1 nanodisc (CB1-ND)): 35700 M⁻¹ s⁻¹
- IC50, nM (CP agonist) [5]: 3.9 nM

B5: LIBC529593-1 (antibody, V domains shown)
VH: B3 VH with Y52H, K66R, A69V, T70R, M114L
VL: not shown
- binding result [10]: no binding
- binding result (mouse CB1 [11]): no binding

B6: LIBC529593-1 (antibody, V domains shown)
VH: B3 VH with Y52H, K66R, A69V, T70R, M114L
VL: not shown
notes: Fully human antibody from the new XenoMouse campaign
- IC50, nM (TR-FRET cAMP assay, CP55,940 and Forskolin) [8]: 6.4 nM
- MFI ratio (target- vs mock-transfected cells) [12]: 422 ratio
- MFI ratio (target- vs mock-transfected cells) [13]: 495 ratio
- MFI ratio (target- vs mock-transfected cells) [14]: 1 ratio
- MFI ratio (target- vs mock-transfected cells) [15]: 1.1 ratio

B7: LIBC523661-1 (antibody, IgG1, V domains shown)
VH: B1 VH with G37S, V53I, Q55Y, T56E, D67G, N100D, T103P, L104V, Y107H
VL: B4 VL
- relative binding to 0.2 nM huCB1-ND (relative to 10D10N35Y) [16]: 4.03 fold
- Fold over mock (mouse CB1 [17]): 0.7 fold
- 100 nM huCB1-SMALP binding (normalized to 10D10) [18]: 8 fold
- Fold over mock [19]: 0.8 fold
- specific huCB1 binding (CB1 ND/Empty ND ratio) [20]: 9.32 ratio
- Kd [21]: 0.064 nM
- binding result [22]: no binding
- binding result (mouse CB1 [23]): no binding

B8: LIBC560340-1 (antibody, V domains shown)
VH: QVQLQESGPGLVKPSQTLSLICIVSGGSIRRGGDYWNWIRQHPGKGLEWIGHIYYSGSKNYNPSLKSRVTISVDTSKNQFSLKLSSVTAADTAVYYCARGYDSSGYSYYYYGMDVWGQGTTVTVSS
VL: DIVMTQSPLSLPVTPGEPASISCRSSQSLLYSNGHNFLDWYLQKPGQSPQLLIYLGSNRASGVPDRFSGSGSGTDFTLKISRVEAEDVGVYYCMQALQTPRTFGGGTKVEIKR
notes: as for B6
- IC50, nM (TR-FRET cAMP assay, CP55,940 and Forskolin) [8]: 10.2 nM
- MFI ratio (target- vs mock-transfected cells) [12]: 578 ratio
- MFI ratio (target- vs mock-transfected cells) [13]: 705 ratio
- MFI ratio (target- vs mock-transfected cells) [14]: 1 ratio
- MFI ratio (target- vs mock-transfected cells) [15]: 1 ratio

B9: LIBC560340-1 (antibody, V domains shown)
VH: B8 VH
VL: B8 VL
- binding result [10]: no binding
- binding result (mouse CB1 [11]): no binding

B10: LIBC560657-1 (antibody, V domains shown)
VH: B8 VH with Q5R, S56T, S58T, N60Y
VL: B8 VL with F37Y, S61P, Y92F
- binding result [10]: no binding
- binding result (mouse CB1 [11]): no binding

B11: LIBC560657-1 (antibody, V domains shown)
VH: B8 VH with Q5R, S56T, S58T, N60Y
VL: B8 VL with F37Y, S61P, Y92F
notes: as for B6
- IC50, nM (TR-FRET cAMP assay, CP55,940 and Forskolin) [8]: 7.5 nM
- MFI ratio (target- vs mock-transfected cells) [12]: 440 ratio
- MFI ratio (target- vs mock-transfected cells) [13]: 444 ratio
- MFI ratio (target- vs mock-transfected cells) [14]: 1 ratio
- MFI ratio (target- vs mock-transfected cells) [15]: 1 ratio
